Assay results: the NTF2 design screens of Basanta et al. (2020)

Test: protease stability score; higher = more stable; yeast display proteolysis, trypsin and chymotrypsin;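 note: relative to predicted unfolded state with 0 unfolded-like and 1 meaning tenfold more protease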

Row | Sequence | protease stability score
1 | SHEDRWIEHMVDLLEELFHTGDWEHLRHLFDPNTRSNINGKEFHGRDLAIKLVVEKMEFFKGARTDVEHRHVQGEKVELIFRLEYNGRRFHLSIRLQVVNGRVKEVNVKIDTE | 1.67
2 | SHEEEDEHRLVIEWLEAVLTGDEDRLTELFDPNMRFVFENHQVHGRERVSKLLVRHMLEWRTRVKIEDMEYFNGRLHIDMELHVDVNGRHVNIKSLLIVEKINGKWFVRSVRVR | 0.534
3 | SHEEEESTKVAEDWLRHVLTGDEEDMTKLADPNTKVDVGDKHMHGMRSYWEFLHEIRIKHVHVHRIHIELVNGRAFIIIDGEIHEEVGDKEVEIKSRFILIVEKVNGRWIIREVRYQRI | 1.54
4 | SHEEEIAREISRDLFRAFLTGDEDWLLKNLDPDARLHVSVGDKSEHFHGREEVMKFVREWRVHRIEIKELRVFNGRIHSRVHVYGEFNGQRFRTDIHENYNIVDGRIKEIHVEIR | 1.66
5 | SHEEELEEKIARILLEAWITGDEEFLFRLADPNVKLDIKYGDKRHIHIGREELLKWYRHELERFKNMKIVLHDRHIQGEKVHLHLVMHFNGQRIDVRIEVIIINGRIKHIHIEVDEK | 2.6
6 | SHEEEMAERALRKFIHSVQTGDEDSWEELLDPNVRINIGDKRHVGRHEAVKLFRQRIRHLRIDHIELRERDYYGDKLILRIIVEGRFNGQETTLELHIVFWKFDGRWIIESMEHK | 2.77
7 | SHEEEMHLHVAELMLKLLLTGNEEELAKLMDPNVQTEIDGRSYHGRELIIDLIRHSREKLGVNHSELKRSHVRLVDGRLHVHLDSRFLVNGVWLDVEIEMFVLKINGKWVIESVHVRVR | 0.718
8 | SHEEHEMHNALKLLLDAWRTGDEDSLNNNADPRMKIKVNGKEFVGMEHMTHFLRELLEELRFTDSTVTELDIVNGVLISVTRLHIEVGDKRMDFHTRLVFTKVNGRWRLHSLVLI | 1.99
9 | SHEEHHLYEVAEMLLRWWRTGDEDSLYKFIDPHARVEIGEYSVHGREHIVRLMSRHLREIRLKDTDVHRIDVINGQTVLNVRLRGEINGVDTNVDARLHVVVVDGVVHSIHIEHI | 1.24
10 | SHEEHLKRDMLERSFKAWLTGDEESLHELLDPHVRVHFNGRDFHGRELVSTLIREMLRWLGIKHSRFHHIQVFDGKARLELRLEQGEFEVEIEVISLKVDGRWFQHELRFH | 1.02
11 | SHEKELNERAFRILIEELMTGDEDSWRKLADPNTRHIIDGQTYHGMDFFHEHVRKMGMTIHHVELEDYRFQGEKAVLILHIDGRQGEKHDKIRITIFIEKVDGRWILREVRIG | 1.17
12 | SHEQEEARFFLDVLIEWFLTGDEEHMMKNADPNVRIEVGDKHLHGRELTYEWLKELRFKHHHVHRVTSQGDKVYYDVKVDGHINGVDRHSLEIIITLKFDGRWILKSIHVR | 1.95
13 | SHHEDDSEISIELTHNLIETGDFELLTELFDPNARMDYNGVTVHGRERVSEFLSRFAHHIRIKRRILRHMDLFDGQIHLHEEYHYDWDGQDIHTEVRFRSEKVNGRWVPKLLHRI | 0.969
14 | SHHEEHLHEMLRLILEAWETGDEDFLEELADPRVQLIVNGKDIHGRHVFRTMLRTHIEQMRIKRVTPRRVRNYDGRVESDIEVDGIIDGQRRKYRTTWVVEIIDGRVESLSLHFI | 0.723
15 | SHHEEHLKRLESFLLEATDTGDEDFLTKLIDPHVKLDIDGVELHGREDWLKYFLDLGVDHVRITSSRDINGRLHLTTRMHIGDKITETRVHSEKFDGQWVIKEIIIH | 0.823
16 | SHKEEEFRRLFELTIRMFLTGDEDVMSKLMDPNVRLQVHVNGKNIEIHGWENLIKTFIDLGIDHWEFKRSDIIGDFVMLDGRIEFNGRRSNTELRFLIIDGRVKSIIIKIE | 2.05
17 | SHLEEDAEKALRHLIHLFYTGDEKTLHNLADPNTRFRIGDKEYHGMEYILEFWLHIRLEDFDVERMSVQGDKIHIDSRMTLHFNGRSREIEVHILLLKYNGVWRIEEVRIH | 1.24
18 | SHLEEEAKEAHDVWLHELLTGDEHQINRLLDPHTRVHIGDKDLHGRHELVRKMVETVRRVDHYHLKIKHLRVQGDKIVSTGNYTLHINGKDIHIDTRLILTKIDGVWILEEIRVE | 1.16
19 | SHLEEETMHIAEIFIKNELTGDERKLVELLDPNTRLHIDIGDKHIDVHGMENITKLLREIWKRLGADHVHIKDVRVQGDKADIITRIDVNGREIHSRIHILVINGKIESLKLHVE | 1.33
20 | SHLEEHLKENLKREEEARRTGDFRFFSRLADPHVKIIINGVELHGMETYNEHWRQIWHDSHHMEITSIDVQGDKIEADIRIIEHGRINGVRESIVLTVRLRFEKINGRWVLTMIIIE | 0.077
